The test system of series [1] is NHAC. Kind of series: Effects of SB431542 on gene expression induction by TGF-β1 in NHAC. The class given is cell-based, human. The settings on record: SB431542 10 μM added 30 minutes before TGF-β1 10 ng/ml, 12 hours. Here is the method:
A time course of the expression of the asporin gene by TGF-β1 in NHAC was examined as described below. Cells were inoculated to a 12-well plate at 1×10^5 cells/well, and cultured in a DMEM/F12 containing 10% FBS until they became confluent. The medium was exchanged with a DMEM/F12 containing 0.2% FBS, and the cells were cultured for 24 hours, after which TGF-β1 (10 ng/ml) was added, total RNA was extracted over time, and the expression levels of the asporin and GAPDH genes were examined. As a result, the expression level of the asporin gene maximized when the cells were cultured in the presence of TGF-β1 (10 ng/ml) for 12 hours, and thereafter the expression level decreased over time (FIG. 46).
In the experimental system for asporin gene expression induction by TGF-β1 used in the method described in Example 54, the effects of SB431542 (Sigma) (10 μM), an inhibitor of TGF-β1 type 1 receptor phosphorylation, on the induction of the expression of the asporin, type II collagen, aggrecan, and TGF-β1 genes (12 hours), when added 30 minutes before addition of TGF-β1 (10 ng/ml), were examined.

Series [2] concerns NHAC. Put plainly: Asporin-specific siRNA transfection in NHAC, gene expression. In kind it is cell-based, human. The conditions noted are these: 24 hours, medium with 10 ng/ml TGF-β1. Here is the method: Asporin-specific siRNA (Si9: […]; SEQ ID NO:35) was designed using an siRNA design support system in Takara Shuzo's website (http://www.takara-bio.co.jp/rnai/intro/htm). […] Cells were inoculated to a 12-well plate at 5×10^5 cells/well, and cultured in a DMEM/F12 containing 10% FBS, ITS, 10 ng/ml TGF-β1 and penicillin/streptomycin for 24 hours, and siRNA transfection was performed using TransIT-TKO (Takara Shuzo). Total RNA was extracted from the cells after 24 hours of cultivation, and examined for the expression of the type II collagen, aggrecan and TGF-β1 genes. […] Therefore, endogenous asporin was thought to negatively regulate the expression of cartilage substrate and the expression of TGF-β1 in NHAC.

Series [3] concerns ATDC5 cell lines that stably express human asporin. Kind of series: TGF-βs-stimulated aggrecan and type II collagen gene expression in ATDC5 lines stably expressing human asporin. The class given is cell-based, mouse. The conditions noted are these: stably expressing lines vs mock, TGF-βs 10 ng/ml, 24 hours. Here is the method:
Plasmid DNAs for allowing ATDC5 cells, a mouse cartilage stem cell line, to stably express human asporin were prepared as described below. First, by the method described below, full-length cDNAs of human asporin D13 and D14 were acquired. Using KOD-plus (Toyobo), according to the method described in the attached protocol, a reaction mixture was prepared. Per 25 μl of the reaction mixture, […] each of a sense strand primer comprising the initiation codon and a restriction enzyme XhoI site, and an antisense strand primer comprising the stop codon of aspotin and a restriction enzyme BamHI site, were used as the primers, and 1 μl (10 ng as total RNA) of a cDNA solution prepared from total RNA extracted from knee articular cartilage from OA patients carrying the D13 allele and the D14 allele of aspartic acid repeat polymorphisms in asporin heterologously was used as the template. […]
The TGF-βs-stimulated expression of the aggrecan and type II collagen genes in ATDC5 cell lines that stably express human asporin was quantified by the method described below. […] For real-time PCR, reactions were performed using QuantiTect SYBR Green PCR Kit (QIAGEN), and detection and quantitation were performed using ABI PRISM 7700. […]

The test system of series [4] is ATDC5 cell lines that transiently express human asporin. Put plainly: TGF-β1-stimulated aggrecan and type II collagen gene expression in ATDC5 transiently expressing human asporin. In kind it is cell-based, mouse. The conditions noted are these: transient expression vs mock, TGF-β1 10 ng/ml, 18 hours. Here is the method:
ATDC5 cells were inoculated to a 12-well plate at 0.5×10^5 cells/well, and cultured in a medium 1-2 (DMEM/F12 medium containing 5% FBS, ITS (Sigma), penicillin (100 U/ml) and streptomycin (100 μg/ml)). 24 hours later, pcDNA3.1-ASP13 or pcDNA3.1-ASP14 were introduced using FuGENE-6 (Roche), and the cells were cultured for 24 hours. Next, the medium was exchanged with a medium 1-2 containing 0.2% FBS, and the cells were cultured for 12 hours, after which TGF-β1 (10 ng/ml) was added, and the cells were further cultured for 18 hours, after which total RNA extraction, purification, cDNA synthesis, and real-time PCR were performed in the same manner as Example 18. As a result, the elevation of the TGF-β1-stimulated expression levels of the aggrecan and type II collagen genes was suppressed in the ATDC5 cells allowed to transiently express human asporin D13 or D14 compared to mock (FIG. 14).
First, the expression level of the aggrecan gene elevated by TGF-β1 stimulation in mock is written as (AM), and the expression level of the type II collagen gene at the same time is written as (CM). Next, the TGF-β1-stimulated aggrecan gene expression level suppressed by the forced expression of asporin D13 is written as (A13), and the type II collagen gene expression level at the same time is written as (C13). […] Thus, the suppression rate of the TGF-β1-stimulated aggrecan gene expression in the asporin D13 expressing line can be expressed as (A13)/(AM), and the suppression rate of the type II collagen gene expression as (C13)/(CM). Likewise, the suppression rate of the TGF-β1-stimulated aggrecan gene expression in the asporin D14 expressing line can be expressed as (A14)/(AM), and the suppression rate of the type II collagen gene expression as (C14)/(CM). Furthermore, by making a correction by dividing these values by the human asporin mRNA content obtained with TGF-β1 stimulation, the suppression rate of the aggrecan and type II collagen gene expression per human asporin mRNA content were calculated. […]

The test system of series [5] is ATDC5 cell lines that stably express human asporin. Put plainly: Cartilage differentiation culture of ATDC5 lines stably expressing human asporin. The class given is cell-based, mouse. The conditions noted are these: stably expressing lines, 5, 9, 15 or 21 days; mock peaks on Day 9. Here is the method:
The ATDC5 cell lines that stably express human asporin prepared in Example 17 were inoculated to a 12-well plate at 0.3×10^5 cells/well, and cultured in a medium 1-1 for 5, 9, 15 or 21 days, after which total RNA extraction, purification, cDNA synthesis, and real-time PCR were performed in the same manner as Example 18.

Series [6] has the same test system. Kind of series: Alcian Blue staining of extracellular proteoglycan in ATDC5 lines stably expressing human asporin. The conditions noted are these: Day 21 of cultivation, absorbance at 630 nm. The class given is cell-based, mouse. Here is the method: The ATDC5 cell lines that stably express human asporin prepared in Example 17 were cultured by the method described in Example 20; using the cells on Day 21 after the start of cultivation, Alcian Blue staining was performed as described below. First, the medium was removed by suction, and the cell surface was washed with cold PBS three times, after which methanol fixation was performed at 4° C. for 2 minutes. The methanol was removed by suction, the cells were once rinsed with distilled water, and then stained using 0.1% Alcian Blue 8GX (Sigma)/3% acetic acid solution at 4° C. for 2 days. The staining solution was removed, the cells were washed with distilled water three times, and then examined under microscope and photographed. Thereafter, the cells were treated with aqueous solution of 6 M guanidine hydrochloride to extract the stained proteoglycan, after which the absorbance at 630 nm was measured.

d = 2'-deoxy (DNA); r = 2'-OH (RNA)

3 molecules from US20090075921A1, “Bone/joint disease sensitivity gene and use thereof” (Riken, priority 2004, published 2009) can be followed below.

On to `NC(=O)c1ccc(-c2nc(-c3ccc4c(c3)OCO4)c(-c3ccccn3)[nH]2)cc1` [SB431542], for which the “induction by TGF-β1 of the expression of the asporin, type II collagen, aggrecan, and TGF-β1 genes” value in series [1] is reported as “inhibited the induction by TGF-β1 of the expression of these genes”.

As for “UCCCUUCAGGAUUACCAGATT (siRNA; sugars from the 5' end r19 d2, backbone not given here) [asporin-specific siRNA]”, the “expression of the type II collagen, aggrecan and TGF-β1 genes” value in series [2] is “significantly increased”.

B1: human asporin D13: human asporin with 13 aspartic acid repeats, expressed from pcDNA3.1-ASP13 (SEQ ID NO:4) (protein, UniProt Q9BXN1 33-380, looked up)
Asporin: DMEDTDDDDDDDDDDDDDDEDNSLFPTREPRSHFFPFDLFPMCPFGCQCYSRVVHCSDLGLTSVPTNIPFDTRMLDLQNNKIKEIKENDFKGLTSLYGLILNNNKLTKIHPKAFLTTKKLRRLYLSHNQLSEIPLNLPKSLAELRIHENKVKKIQKDTFKGMNALHVLEMSANPLDNNGIEPGAFEGVTVFHIRIAEAKLTSVPKGLPPTLLELHLDYNKISTVELEDFKRYKELQRLGLGNNKITDIENGSLANIPRVREIHLENNKLKKIPSGLPELKYLQIIFLHSNSIARVGVNDFCPTVPKMKKSLYSAISLFNNPVKYWEMQPATFRCVLSRMSVQLGNFGM
Take B1: the “elevation of the TGF-β1-stimulated expression levels of the aggrecan and type II collagen genes” value in series [3] is “suppressed compared to mock”; in series [4], “suppressed”. The “expression of the aggrecan and type II collagen genes during cartilage differentiation culture” value in series [5] is “did not rise”. In addition, in series [6], the “intensity of staining with Alcian Blue (extracellular proteoglycan)” value is on record as “mock>D13>D14”.
